Measurements: the supplement of paper PMC7877785
± gives the uncertainty stated by the source.

Test: self-splicing fitness, log relative to wild type (ln ratio); higher = more splicing; Tetrahymena group I intron in knt gene, E. coli kanamycin selection, DiMSum; sequences stand for … in CUCUCU…GGAGGGAAAAGUUAUCAGGCAUGCACCUGGUAGCUAGUCUUUAAACCAAUAGAUUGCAUCGGUUUAAAAGGCAAGACCGUCAAAUUGCGGGAAAGGGGUCAACAGCCGUUCAGUACCAAGUCUCAGGGGAAACUUUGAGAUGGCCUUGCAAAGGGUAUGGUAAUAAGCUGACGGACAUGGUCCUAACCACGCAGCCAAGUCCUAAGUCAACAGAUCUUCUGUUGAUAUGGAUGCAGUUCACAGACUAAAUGUCGGUCGGGGAAGAUGUAUUCUUCUCAUAAGAUAUAGUCGGACCUCUCCUUAAUGGGAGCUAGCGGAUGAAGUGAUGCAACACUGGAGCCGCUGGGAACUAAUUUGUAUGCGAAAGUAUAUUGAUUAGUUUUGGAGUACUCGUGGUCG
How it was run: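 Library with all eight P1ex-region intron nucleotides randomised, intron inside the knt kanamycin-resistance gene on pET-22b(+), in E. coli BL21(DE3). Cells grew overnight at 37°C or 30°C on LB agar with or without 25 μg/mL kanamycin (plus 100 μg/mL carbenicillin, 50 μM IPTG, 0.2% rhamnose), in six replicate transformations. Pooled colonies were amplicon-sequenced on Illumina HiSeq 2500. DiMSum fitness is the error-weighted combination of wild-type-normalised replicate fold changes, kanamycin versus none.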

Sequence | self-splicing fitness (ln) (30 °C) | self-splicing fitness (ln) (37 °C)
CUACAGCAAUAUUACGCAUG | -1.48 ± 0.086 | -1.44 ± 0.079
CUACAGCAAUAUUACGCAUU | – | -2.83 ± 0.25
CUACAGCAAUAUUACGCCAG | -1.3 ± 0.13 | -0.891 ± 0.16
CUACAGCAAUAUUACGGAUA | -3.45 ± 0.14 | -3.2 ± 0.16
CUACAGCAAUAUUACGGGCC | – | -3.03 ± 0.47
CUACAGCAAUAUUACGGUUC | -2.93 ± 0.089 | -1.23 ± 0.1
CUACAGCAAUAUUACGGUUU | -3.8 ± 0.16 | -1.31 ± 0.11
CUACAGCAAUAUUACGUAUC | -2.78 ± 0.19 | -3.07 ± 0.24
CUAGAGCAAUAUUACGAAAG | -0.33 ± 0.092 | 0.557 ± 0.12
CUAGAGCAAUAUUACGAACA | -4.05 ± 0.28 | -2.05 ± 0.2
CUAGAGCAAUAUUACGAACC | -1.8 ± 0.47 | –
CUAGAGCAAUAUUACGAAGC | -0.938 ± 0.42 | -1.45 ± 0.43
CUAGAGCAAUAUUACGAAUC | -3.87 ± 0.36 | -2.07 ± 0.21
CUAGAGCAAUAUUACGACAU | -3.918 ± 0.03 | -2.71 ± 0.043
CUAGAGCAAUAUUACGACGC | – | -0.974 ± 0.32
CUAGAGCAAUAUUACGAGCU | -3.73 ± 0.31 | -3.37 ± 0.28
CUAGAGCAAUAUUACGAGGU | -3.26 ± 0.16 | -3.24 ± 0.3
CUAGAGCAAUAUUACGCCGU | -2.86 ± 0.32 | -1.99 ± 0.43
CUAGAGCAAUAUUACGCGGG | -2.91 ± 0.22 | 0.316 ± 0.14
CUAGAGCAAUAUUACGCUCC | -2.45 ± 0.42 | –
CUAGAGCAAUAUUACGCUCG | -3.8 ± 0.46 | -1.69 ± 0.36
CUAGAGCAAUAUUACGCUUA | -3.65 ± 0.3 | -2.77 ± 0.26

Sequence | self-splicing fitness (ln) (30 °C) | self-splicing fitness (ln) (37 °C)
CUAGAGCAAUAUUACGGACA | -2.86 ± 0.16 | -1.96 ± 0.29
CUAGAGCAAUAUUACGGAUC | -3.28 ± 0.15 | -3.06 ± 0.4
CUAGAGCAAUAUUACGGCCA | -2.59 ± 0.49 | –
CUAGAGCAAUAUUACGGCGA | -3.28 ± 0.32 | –
CUAGAGCAAUAUUACGGGCA | – | -2.34 ± 0.36
CUAGAGCAAUAUUACGGUGG | -0.455 ± 0.06 | -0.563 ± 0.089
CUAGAGCAAUAUUACGUACA | -2.59 ± 0.36 | -1.64 ± 0.32
CUAGAGCAAUAUUACGUAUC | – | -1.7 ± 0.26
CUAGAGCAAUAUUACGUAUG | -0.333 ± 0.084 | 0.333 ± 0.11
CUAGAGCAAUAUUACGUCCC | – | -1.71 ± 0.47
CUAGAGCAAUAUUACGUGCA | -3.88 ± 0.21 | -2.18 ± 0.19
CUAGAGCAAUAUUACGUGGA | -3.21 ± 0.19 | -1.68 ± 0.18
CUAGAGCAAUAUUACGUUCU | -3.79 ± 0.21 | -2.21 ± 0.22
CUAUAGCAAUAUUACGAAUA | -2.99 ± 0.34 | -1.47 ± 0.22
CUAUAGCAAUAUUACGACAG | 0.0925 ± 0.097 | 0.0869 ± 0.11
CUAUAGCAAUAUUACGACGA | -1.82 ± 0.19 | -0.725 ± 0.13
CUAUAGCAAUAUUACGACUC | – | -1.31 ± 0.39
CUAUAGCAAUAUUACGAGCG | 0.114 ± 0.086 | 0.29 ± 0.11
CUAUAGCAAUAUUACGAGGU | -4.07 ± 0.42 | -3.28 ± 0.42
CUAUAGCAAUAUUACGAUUU | – | -0.748 ± 0.28
CUAUAGCAAUAUUACGCGAU | -2.31 ± 0.12 | -1.5 ± 0.12
